Measured values from the RNAGym collection of RNA variant scans (doi:10.1021/acssynbio.7b00057).

B1: Pistol ribozyme (parent)
chain: GGGUCGUUGUUCCAUAAUCGCGUGGAUAUGGCACGCAAGUUUCUACCGGGCACCGUAAAUGUCCGACUGGAGCCGUUCGGGCGGCUAUAAACAGACCUCAGGCCCGAAGCGUGGCGGCACCUGCCGCCGGUGGUAAAAAAGAUCGGAAGAGCACACGUCU

Variants of: B1
Assay: aptazyme ON/OFF ratio, guanine; higher = stronger switching; co-transcriptional cleavage with and without guanine

Row | Variant | aptazyme ON/OFF ratio
1 | U7G C13G | 1.05
2 | U7A G9U U10C U11G C12A C13A | 1.05
3 | U7C C12U C13A | 1.55
4 | U7G U8C G9A C12A C13U | 1.06
5 | U7G U8G U10A C12U C13G | 1.18
6 | U7C U8C G9A U10G U11A C13U | 1.07
7 | U7G U8C G9C U10C U11A C12A | 1.06
8 | U7C U8C U11A C12U | 1.16
9 | U8C G9C U11A C12A C13A | 1.09
10 | U7C U8A G9U U10C U11A C12G C13A | 1.1
11 | U7A U8C G9C U11A C12U | 1.05
12 | U7G U8G G9A U10A U11C C12G C13A | 1.13
13 | U7A U8C G9U U10C U11C C13A | 1.01
14 | U7G U8A G9C U10G U11C C12U C13U | 1.04
15 | U8G G9A U10C U11C C12U | 1.02
16 | U7A U8C G9C U11A C12A C13G | 1.08
17 | U8C G9A C12G | 1.26
18 | U7C U8G G9U U10G U11C C12A C13U | 1.15
19 | U7G U8A G9A U10A U11C C12G C13A | 1.11
20 | U8A G9C U10G | 1.54
21 | U7G U8G U10G U11G C12G | 1.26

Row | Variant | aptazyme ON/OFF ratio
22 | U7A U8C G9C U10A U11A C12A C13U | 1.05
23 | U7G U8A U10A U11A C12U | 1.12
24 | U8A G9C U10C U11G C12U C13G | 1.08
25 | U7G U8C G9A U11A C13U | 1.21
26 | U7C U8G G9A U11G C12U C13U | 1.27
27 | U8C G9U U10G U11A C12G | 1.22
28 | U7C U8G U11G C13G | 1.07
29 | U7G U8A G9C U10A U11C C12A C13U | 1.03
30 | U8G G9C U11C C12U C13G | 1.03
31 | U7A U8G G9A U10G U11A C13A | 1.11
32 | U7A U8A G9C U10A U11A C12A C13U | 1.14
33 | U7G G9U U10G C13U | 1.48
34 | U7C U8C G9C U10C C12U | 1.94
35 | U7C G9U U11G C13A | 1.21
36 | U7A U8G U10A U11C C12U C13G | 1.41
37 | U8G G9U U10A U11C C12A C13G | 1.1
38 | U7A U8A G9U U10G U11A C12A C13U | 1.16
39 | U8C U11C C12A C13U | 1.73
40 | G9C U10G C12G C13G | 1.14
41 | U7C U8C U10C U11A C12G C13A | 1.15
42 | U7G G9C U10C U11G C13U | 1.27

Row | Variant | aptazyme ON/OFF ratio
43 | U7C U8G U10G U11C C12G C13U | 1.26
44 | U7C U8G G9A U10C U11A C12U C13A | 1.07
45 | U7A U8C G9U U10A U11G C13G | 1.1
46 | G9C U10C U11C C12A | 1.04
47 | U8A U10C U11G C12U | 1.37
48 | U7A U8A G9A U10A U11C C12G C13A | 1.11
49 | U7G U8G G9U U10A C12A C13U | 1.15
50 | U7G U8C G9U U10C U11G C12A | 1.75
51 | U8C G9U U10G U11A C12A C13A | 1.44
52 | U7A U8A G9U U10C U11C C12G C13G | 1.07
53 | U7C U8A U10G C12A C13A | 1.2
54 | U8C G9A U10A U11A C12A | 1.3
55 | U8G G9U U10A C12U C13U | 1.17
56 | U7C U8G G9A U10C U11G C12A | 1.07
57 | U7G G9U U10C U11A C12A C13U | 1.36
58 | U7C U8C G9C U10C C12A | 1.08
59 | U7G U8C U10A U11G C12U C13G | 1.16
60 | U7C U10C C12A C13G | 1.18
61 | G9A U10G U11G C12A C13A | 1.19
62 | U8C G9U U10A U11A C12U C13A | 1.14
63 | U7G G9A U10C C12A C13A | 1.14

Row | Variant | aptazyme ON/OFF ratio
64 | U7A U8G U10C U11A C12G C13U | 1.31
65 | U7A U8G G9U U11A C13U | 1.44
66 | U7C U8A G9C U10A U11A C12U C13G | 1.1
67 | U8C G9U U10C | 1.87
68 | U7A U8C G9A U11G C13U | 1.22
69 | U7C G9A U10C U11G C12A C13G | 1.15
70 | U10G U11G C12G | 1.4
71 | U7G U8C G9C U10A C12G | 1.25
72 | U7G G9U U10G U11C C12U C13U | 1.44
73 | U7G U8G G9C U10G C12A | 1.14
74 | U7A G9U C12U C13A | 1.19
75 | U7G U8A G9U U10G U11G C12U C13A | 1.04
76 | G9C U11G C12A C13U | 1.13
77 | U8A U10C C13U | 1.19
78 | U7C U8C G9U U10A U11A C12G C13G | 1.19
79 | U7C G9A U10G U11G C12G C13U | 1.07
80 | U8C G9C U10A U11A C12U C13G | 1.1
81 | U7C U8G U10C U11G C12A C13G | 1.1
82 | U8C G9A U10A C13A | 1.17
83 | U7C G9C U10A U11G C12A C13A | 1.15
84 | U7G U8C G9A U10A U11A C12G C13U | 1.15
